Measured values reported in patent US20260015399A1 (Boehringer Ingelheim, published 2026).
*1 amine or outer side, *2 acyl side, *3 side chain or, on linkers, in order; H or OH if unused. Side-chain parts run from the residue outwards. The star is where a group is joined. C18 diacid = O=C(O)CCCCCCCCCCCCCCCCC(=O)*; γGlu = O=C(O)[C@H](CCC(=O)[*:2])N[*:1]; Isovaleryl = CC(C)CC(=O)*; Ahx = NCCCCCC(=O)O

T1: human NPY2 receptor (human, UniProt P49146 1-381)
T1 construct: whole, on cells; also called hNPY2-R; hNPY2R
T1 sequence (looked up): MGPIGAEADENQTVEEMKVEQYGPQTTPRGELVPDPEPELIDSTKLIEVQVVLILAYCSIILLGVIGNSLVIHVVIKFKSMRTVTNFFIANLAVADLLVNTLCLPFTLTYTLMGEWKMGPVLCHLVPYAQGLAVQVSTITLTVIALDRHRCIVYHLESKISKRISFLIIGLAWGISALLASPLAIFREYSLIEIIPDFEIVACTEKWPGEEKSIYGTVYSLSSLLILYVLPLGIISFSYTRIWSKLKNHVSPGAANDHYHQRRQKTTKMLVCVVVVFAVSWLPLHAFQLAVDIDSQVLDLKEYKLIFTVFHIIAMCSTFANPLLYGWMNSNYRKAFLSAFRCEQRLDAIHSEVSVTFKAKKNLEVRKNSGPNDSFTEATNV

B1: Compound 22 (peptide)
peptide: Isovaleryl-APEK([Ahx-γGlu-C18 diacid])PEEDPTPEELQRYYVSLRHYYNWLTRQRY-NH2
SMILES: CC(C)CC(=O)N[C@@H](C)C(=O)N1CCC[C@H]1C(=O)N[C@@H](CCC(=O)O)C(=O)N[C@@H](CCCCNC(=O)CCCCCNC(=O)CC[C@H](NC(=O)CCCCCCCCCCCCCCCCC(=O)O)C(=O)O)C(=O)N1CCC[C@H]1C(=O)N[C@@H](CCC(=O)O)C(=O)N[C@@H](CCC(=O)O)C(=O)N[C@@H](CC(=O)O)C(=O)N1CCC[C@H]1C(=O)N[C@H](C(=O)N1CCC[C@H]1C(=O)N[C@@H](CCC(=O)O)C(=O)N[C@@H](CCC(=O)O)C(=O)N[C@@H](CC(C)C)C(=O)N[C@@H](CCC(N)=O)C(=O)N[C@@H](CCCNC(=N)N)C(=O)N[C@@H](Cc1ccc(O)cc1)C(=O)N[C@@H](Cc1ccc(O)cc1)C(=O)N[C@H](C(=O)N[C@@H](CO)C(=O)N[C@@H](CC(C)C)C(=O)N[C@@H](CCCNC(=N)N)C(=O)N[C@@H](Cc1c[nH]cn1)C(=O)N[C@@H](Cc1ccc(O)cc1)C(=O)N[C@@H](Cc1ccc(O)cc1)C(=O)N[C@@H](CC(N)=O)C(=O)N[C@@H](Cc1c[nH]c2ccccc12)C(=O)N[C@@H](CC(C)C)C(=O)N[C@H](C(=O)N[C@@H](CCCNC(=N)N)C(=O)N[C@@H](CCC(N)=O)C(=O)N[C@@H](CCCNC(=N)N)C(=O)N[C@@H](Cc1ccc(O)cc1)C(N)=O)[C@@H](C)O)C(C)C)[C@@H](C)O
B2: Compound 29 (peptide)
peptide: Isovaleryl-APEK([Ahx-γGlu-C18 diacid])PEADSSPEELQRYYVSLRHYYNWLTRQRY-NH2
SMILES: CC(C)CC(=O)N[C@@H](C)C(=O)N1CCC[C@H]1C(=O)N[C@@H](CCC(=O)O)C(=O)N[C@@H](CCCCNC(=O)CCCCCNC(=O)CC[C@H](NC(=O)CCCCCCCCCCCCCCCCC(=O)O)C(=O)O)C(=O)N1CCC[C@H]1C(=O)N[C@@H](CCC(=O)O)C(=O)N[C@@H](C)C(=O)N[C@@H](CC(=O)O)C(=O)N[C@@H](CO)C(=O)N[C@@H](CO)C(=O)N1CCC[C@H]1C(=O)N[C@@H](CCC(=O)O)C(=O)N[C@@H](CCC(=O)O)C(=O)N[C@@H](CC(C)C)C(=O)N[C@@H](CCC(N)=O)C(=O)N[C@@H](CCCNC(=N)N)C(=O)N[C@@H](Cc1ccc(O)cc1)C(=O)N[C@@H](Cc1ccc(O)cc1)C(=O)N[C@H](C(=O)N[C@@H](CO)C(=O)N[C@@H](CC(C)C)C(=O)N[C@@H](CCCNC(=N)N)C(=O)N[C@@H](Cc1c[nH]cn1)C(=O)N[C@@H](Cc1ccc(O)cc1)C(=O)N[C@@H](Cc1ccc(O)cc1)C(=O)N[C@@H](CC(N)=O)C(=O)N[C@@H](Cc1c[nH]c2ccccc12)C(=O)N[C@@H](CC(C)C)C(=O)N[C@H](C(=O)N[C@@H](CCCNC(=N)N)C(=O)N[C@@H](CCC(N)=O)C(=O)N[C@@H](CCCNC(=N)N)C(=O)N[C@@H](Cc1ccc(O)cc1)C(N)=O)[C@@H](C)O)C(C)C
B3: Compound 27 (peptide)
peptide: Isovaleryl-APEK([Ahx-γGlu-C18 diacid])PEEDAEPEESQRYYVSLRHYYNWLTRQRY-NH2
SMILES: CC(C)CC(=O)N[C@@H](C)C(=O)N1CCC[C@H]1C(=O)N[C@@H](CCC(=O)O)C(=O)N[C@@H](CCCCNC(=O)CCCCCNC(=O)CC[C@H](NC(=O)CCCCCCCCCCCCCCCCC(=O)O)C(=O)O)C(=O)N1CCC[C@H]1C(=O)N[C@@H](CCC(=O)O)C(=O)N[C@@H](CCC(=O)O)C(=O)N[C@@H](CC(=O)O)C(=O)N[C@@H](C)C(=O)N[C@@H](CCC(=O)O)C(=O)N1CCC[C@H]1C(=O)N[C@@H](CCC(=O)O)C(=O)N[C@@H](CCC(=O)O)C(=O)N[C@@H](CO)C(=O)N[C@@H](CCC(N)=O)C(=O)N[C@@H](CCCNC(=N)N)C(=O)N[C@@H](Cc1ccc(O)cc1)C(=O)N[C@@H](Cc1ccc(O)cc1)C(=O)N[C@H](C(=O)N[C@@H](CO)C(=O)N[C@@H](CC(C)C)C(=O)N[C@@H](CCCNC(=N)N)C(=O)N[C@@H](Cc1c[nH]cn1)C(=O)N[C@@H](Cc1ccc(O)cc1)C(=O)N[C@@H](Cc1ccc(O)cc1)C(=O)N[C@@H](CC(N)=O)C(=O)N[C@@H](Cc1c[nH]c2ccccc12)C(=O)N[C@@H](CC(C)C)C(=O)N[C@H](C(=O)N[C@@H](CCCNC(=N)N)C(=O)N[C@@H](CCC(N)=O)C(=O)N[C@@H](CCCNC(=N)N)C(=O)N[C@@H](Cc1ccc(O)cc1)C(N)=O)[C@@H](C)O)C(C)C
B4: Compound 28 (peptide)
peptide: Isovaleryl-APEK([Ahx-γGlu-C18 diacid])PPEDATPEEIQRYYVSLRHYYNWLTRQRY-NH2
SMILES: CC[C@H](C)[C@H](NC(=O)[C@H](CCC(=O)O)NC(=O)[C@H](CCC(=O)O)NC(=O)[C@@H]1CCCN1C(=O)[C@@H](NC(=O)[C@H](C)NC(=O)[C@H](CC(=O)O)NC(=O)[C@H](CCC(=O)O)NC(=O)[C@@H]1CCCN1C(=O)[C@@H]1CCCN1C(=O)[C@H](CCCCNC(=O)CCCCCNC(=O)CC[C@H](NC(=O)CCCCCCCCCCCCCCCCC(=O)O)C(=O)O)NC(=O)[C@H](CCC(=O)O)NC(=O)[C@@H]1CCCN1C(=O)[C@H](C)NC(=O)CC(C)C)[C@@H](C)O)C(=O)N[C@@H](CCC(N)=O)C(=O)N[C@@H](CCCNC(=N)N)C(=O)N[C@@H](Cc1ccc(O)cc1)C(=O)N[C@@H](Cc1ccc(O)cc1)C(=O)N[C@H](C(=O)N[C@@H](CO)C(=O)N[C@@H](CC(C)C)C(=O)N[C@@H](CCCNC(=N)N)C(=O)N[C@@H](Cc1c[nH]cn1)C(=O)N[C@@H](Cc1ccc(O)cc1)C(=O)N[C@@H](Cc1ccc(O)cc1)C(=O)N[C@@H](CC(N)=O)C(=O)N[C@@H](Cc1c[nH]c2ccccc12)C(=O)N[C@@H](CC(C)C)C(=O)N[C@H](C(=O)N[C@@H](CCCNC(=N)N)C(=O)N[C@@H](CCC(N)=O)C(=O)N[C@@H](CCCNC(=N)N)C(=O)N[C@@H](Cc1ccc(O)cc1)C(N)=O)[C@@H](C)O)C(C)C
B5: Compound 25 (peptide)
peptide: Isovaleryl-APEK([Ahx-γGlu-C18 diacid])PEADATPEELQRYYISLRHYYNWLTRQRY-NH2
SMILES: CC[C@H](C)[C@H](NC(=O)[C@H](Cc1ccc(O)cc1)NC(=O)[C@H](Cc1ccc(O)cc1)NC(=O)[C@H](CCCNC(=N)N)NC(=O)[C@H](CCC(N)=O)NC(=O)[C@H](CC(C)C)NC(=O)[C@H](CCC(=O)O)NC(=O)[C@H](CCC(=O)O)NC(=O)[C@@H]1CCCN1C(=O)[C@@H](NC(=O)[C@H](C)NC(=O)[C@H](CC(=O)O)NC(=O)[C@H](C)NC(=O)[C@H](CCC(=O)O)NC(=O)[C@@H]1CCCN1C(=O)[C@H](CCCCNC(=O)CCCCCNC(=O)CC[C@H](NC(=O)CCCCCCCCCCCCCCCCC(=O)O)C(=O)O)NC(=O)[C@H](CCC(=O)O)NC(=O)[C@@H]1CCCN1C(=O)[C@H](C)NC(=O)CC(C)C)[C@@H](C)O)C(=O)N[C@@H](CO)C(=O)N[C@@H](CC(C)C)C(=O)N[C@@H](CCCNC(=N)N)C(=O)N[C@@H](Cc1c[nH]cn1)C(=O)N[C@@H](Cc1ccc(O)cc1)C(=O)N[C@@H](Cc1ccc(O)cc1)C(=O)N[C@@H](CC(N)=O)C(=O)N[C@@H](Cc1c[nH]c2ccccc12)C(=O)N[C@@H](CC(C)C)C(=O)N[C@H](C(=O)N[C@@H](CCCNC(=N)N)C(=O)N[C@@H](CCC(N)=O)C(=O)N[C@@H](CCCNC(=N)N)C(=O)N[C@@H](Cc1ccc(O)cc1)C(N)=O)[C@@H](C)O
B6: Compound 24 (peptide)
peptide: Isovaleryl-APEK([Ahx-γGlu-C18 diacid])PEEDSSPEELQRYYVALRHYYNWLTRQRY-NH2
SMILES: CC(C)CC(=O)N[C@@H](C)C(=O)N1CCC[C@H]1C(=O)N[C@@H](CCC(=O)O)C(=O)N[C@@H](CCCCNC(=O)CCCCCNC(=O)CC[C@H](NC(=O)CCCCCCCCCCCCCCCCC(=O)O)C(=O)O)C(=O)N1CCC[C@H]1C(=O)N[C@@H](CCC(=O)O)C(=O)N[C@@H](CCC(=O)O)C(=O)N[C@@H](CC(=O)O)C(=O)N[C@@H](CO)C(=O)N[C@@H](CO)C(=O)N1CCC[C@H]1C(=O)N[C@@H](CCC(=O)O)C(=O)N[C@@H](CCC(=O)O)C(=O)N[C@@H](CC(C)C)C(=O)N[C@@H](CCC(N)=O)C(=O)N[C@@H](CCCNC(=N)N)C(=O)N[C@@H](Cc1ccc(O)cc1)C(=O)N[C@@H](Cc1ccc(O)cc1)C(=O)N[C@H](C(=O)N[C@@H](C)C(=O)N[C@@H](CC(C)C)C(=O)N[C@@H](CCCNC(=N)N)C(=O)N[C@@H](Cc1c[nH]cn1)C(=O)N[C@@H](Cc1ccc(O)cc1)C(=O)N[C@@H](Cc1ccc(O)cc1)C(=O)N[C@@H](CC(N)=O)C(=O)N[C@@H](Cc1c[nH]c2ccccc12)C(=O)N[C@@H](CC(C)C)C(=O)N[C@H](C(=O)N[C@@H](CCCNC(=N)N)C(=O)N[C@@H](CCC(N)=O)C(=O)N[C@@H](CCCNC(=N)N)C(=O)N[C@@H](Cc1ccc(O)cc1)C(N)=O)[C@@H](C)O)C(C)C

Molecular target: T1, human NPY2 receptor
Test: RLB: displacement of 125I-PYY(1-36) from hNPY2R membranes
Procedure: The filtration RLB assay was carried out in 96-well plates in a final volume of 100 μl per well. Freeze-dried test peptides were dissolved in 100% dimethyl sulfoxide (DMSO) to stock solutions of 1 mM and serial dilutions were performed in assay buffer (50 mM HEPES, 5 mM MgCl₂, 1 mM CaCl₂), pH 7.4) containing 0.2% ovalbumin. […] Next, 80 μL membranes (HTS066M, ChemiSCREEN™ Human Neuropeptide Y2 Receptor Membrane Preparation, CHEMICON) were added to each well to give a final protein concentration of 0.5 μg/well. The plates were sealed and incubated at room temperature for 2 hours in a plate shaker set at 400 rpm. The incubation was stopped by vacuum filtration onto 0.5% polyethylene amine (PEI) presoaked GF/C filters using a 96-well FilterMate™ harvester (Perkin Elmer) followed by four washes with 300 μl/well ice-cold wash buffer (50 mM HEPES, 500 mM NaCl, pH7.4). Filter plates were then dried for 60 min at room temperature and the bottom of the plates was sealed with backing tape UniFilter-96. Finally, 50 μl/well scintillation counter cocktail (Microscint20, Packard) was added and the radioactivity was counted in the Packard TopCount NXT scintillation counter. IC₅₀ values (the half maximal inhibitory concentration of the agonist) were calculated by nonlinear regression analysis of sigmoidal dose-response curves.

| Ki | Binder |
| --- | --- |
| 4.98 nM | B1 |
| 1.36 nM | B2 |
| 10.5 nM | B3 |
| 0.49 nM | B4 |
| 1.55 nM | B5 |
| 3.39 nM | B6 |
